B1: Pvtrc: engineered hybrid phenolic-inducible promoter, PemrR with spacer region of Ptrc, SEQ ID NO:54 (nucleic acid)
DNA: GAATCATTTTTCTAAAACAATACATTTGACAATTAATCATCCGGCTCGTATAATGATCGGCTGAAATTAATGAGGTCATACCCAAAT
modifications: expressed or natural sequence
B2: Pvtac: engineered hybrid phenolic-inducible promoter, PemrR with spacer region of Ptac, SEQ ID NO:53 (nucleic acid)
DNA: GAATCATTTTTCTAAAACAATACATTTGACAATTAATCATCGGCTCGTATAATGATCGGCTGAAATTAATGAGGTCATACCCAAAT
modifications: expressed or natural sequence
B3: Pvtic: engineered hybrid phenolic-inducible promoter, PemrR with spacer region of Ptic, SEQ ID NO:55 (nucleic acid)
DNA: GAATCATTTTTCTAAAACAATACATTTGACAATTAATCATCGCGGCTCGTATAATGATCGGCTGAAATTAATGAGGTCATACCCAAAT
modifications: expressed or natural sequence

System: mCherry expression in E. coli
Experiment: Bulk mCherry fluorescence of E. coli strains (plate reader, normalized to OD600) after induction with phenolics
Assay type: cell-based
Conditions: for improved gene expression in comparison with PemrR: 1 mM coumaric acid; for improved gene expression in comparison with PemrR / fold change in comparison with PemrR / improvement of expression levels in comparison with PemrR: 24 h of induction; for fold change in comparison with PemrR: 5 mM coumaric acid; for improvement of expression levels in comparison with PemrR: 5 mM vanillic acid; for increase in fluorescence / protein expression in comparison with native promoter PemrR (control strain RIF01): induced with 5 mM vanillin, 12 h after induction, 30° C.
Description: Cell growth and bulk fluorescence measurements: For the fluorescence experiments, frozen stocks of the strains were used to inoculate 5 ml of LB medium containing 25 mg l^−1 chloramphenicol and incubated at 37° C. with an orbital shaking of 250 r.p.m. Overnight cultures were used to inoculate (0.1% volume/volume) an M9 salt medium containing 25 mg l^−1 chloramphenicol, 20 g l^−1 glucose, and 5 g l^−1 yeast extract. The M9 salt medium (Sigma-Aldrich) contains 6.78 g l^−1 Na2HPO4, 3 g l^−1 KH2PO4, 0.5 g l^−1 NaCl, 1 g l^−1 NH4Cl, 0.1 mM CaCl2), and 2 mM MgSO4. 200 μl cultures of each strain (in triplicates) were loaded into black 96-well plates (black polystyrene plates with flat pclear bottom from Greiner Bio-One) and covered with Breathe-Easier sealing membrane (Sigma).
The cultures were grown until mid-log phase at 37° C. and 250 rpm. The mid-log phase cells were induced with phenolics such as vanillin, coumaric acid, and vanillic acid at varying concentrations. The induced cells were incubated in a plate reader (Tecan Infinite 200 Pro) at 30° C. and a 3 mm shaking amplitude. The optical density of the cultures and the mCherry fluorescence was monitored at required intervals in the plate reader. Cell density was measured by monitoring the absorption of the cultures at 600 nm (OD600). Fluorescence was recorded using an excitation wavelength of 575±9 nm and an emission wavelength of 610±20 nm with a manual gain of 100 and a Z-position of 20,000 μm. Fluorescence readings are reported as normalized fluorescence given by the ratio of fluorescence of the cells to the OD600. The fold changes were reported as the ratio of fluorescence level of the strain with engineered promoter to the strain with the basal promoter.

Molecule	induction of the promoters (PemrR, Pvtac, Pvtrc, Pvtic) by the phenolic (strains RIF01-RIF04, effect emerged after 24 h)	improved gene expression in comparison with PemrR	fold change in comparison with PemrR	improvement of expression levels in comparison with PemrR	increase in fluorescence / protein expression in comparison with native promoter PemrR (control strain RIF01)
COc1cc(C(=O)O)ccc1O [Vanillic acid, vanillic acid, reference compound]	some level of induction				
B1		8.5 fold	6.4 fold	6.8 fold	3.0 fold
B2		10.4 fold	7.1 fold	9.5 fold	4.6 fold
B3				2.1 fold	1.5 fold
